Laboratory results from patent US20080227698A1, “OLIGOPEPTIDES FOR TREATMENT OF OSTEOPOROSIS AND OTHER BONE DISEASES AND METHODS THEREOF” (Washington University, priority 2005, published 2008).

Legend:
LRP5 = LRP5 (Homo sapiens, UniProt O75197); experiment: ^125I-Mesd binding to HEK293 cells transiently transfected with LRP5; settings: ^125I-Mesd 5 nM, 4 hours at 4° C., HEK293 cells transfected with Myc-tagged LRP5
Procedure: Cells (2×10^5) were seeded into 12-well dishes 1 day prior to assay. Ligand-binding buffer (minimal Eagle's medium containing 0.6% BSA with a different concentration of radioligand, 0.6 ml/well) was added to cell monolayers, in the absence or the presence of 500 nM unlabeled RAP or 500 nM unlabeled Mesd, followed with incubation for 0-4 hours at 4° C. Thereafter, overlying buffer containing unbound ligand was removed, and cell monolayers were washed and lysed in low-SDS lysis buffer (62.5 mM Tris-HCl pH 6.8, 0.2% SDS, 10% v/glycerol) and counted.
To determine whether Mesd binds to other members of the LDLR family, ^125I-Mesd binding analysis was performed with four groups of cells expressing different members of the LDLR family (FIG. 2). In the first experiment, HEK293 cells were transiently transfected with cDNAs for the LDLR, LRP5, LRP6 or empty pcDNA3 vector. […]

LRP6 = LRP6 (Homo sapiens, UniProt O75581); experiment: LRP6 folding: western blot of ER and mature LRP6 forms in HEK293 cells with Mesd coexpression; assay type: cell-based; design: plasmid pCS-Myc-hLRP6 containing the full-length human LRP6 cDNA; HA; expressed in transfected cells; settings: HEK293 cells transiently transfected with LRP6 cDNA and Mesd or MesdΔC cDNA
Sequence of LRP6 (O75581 20-1613): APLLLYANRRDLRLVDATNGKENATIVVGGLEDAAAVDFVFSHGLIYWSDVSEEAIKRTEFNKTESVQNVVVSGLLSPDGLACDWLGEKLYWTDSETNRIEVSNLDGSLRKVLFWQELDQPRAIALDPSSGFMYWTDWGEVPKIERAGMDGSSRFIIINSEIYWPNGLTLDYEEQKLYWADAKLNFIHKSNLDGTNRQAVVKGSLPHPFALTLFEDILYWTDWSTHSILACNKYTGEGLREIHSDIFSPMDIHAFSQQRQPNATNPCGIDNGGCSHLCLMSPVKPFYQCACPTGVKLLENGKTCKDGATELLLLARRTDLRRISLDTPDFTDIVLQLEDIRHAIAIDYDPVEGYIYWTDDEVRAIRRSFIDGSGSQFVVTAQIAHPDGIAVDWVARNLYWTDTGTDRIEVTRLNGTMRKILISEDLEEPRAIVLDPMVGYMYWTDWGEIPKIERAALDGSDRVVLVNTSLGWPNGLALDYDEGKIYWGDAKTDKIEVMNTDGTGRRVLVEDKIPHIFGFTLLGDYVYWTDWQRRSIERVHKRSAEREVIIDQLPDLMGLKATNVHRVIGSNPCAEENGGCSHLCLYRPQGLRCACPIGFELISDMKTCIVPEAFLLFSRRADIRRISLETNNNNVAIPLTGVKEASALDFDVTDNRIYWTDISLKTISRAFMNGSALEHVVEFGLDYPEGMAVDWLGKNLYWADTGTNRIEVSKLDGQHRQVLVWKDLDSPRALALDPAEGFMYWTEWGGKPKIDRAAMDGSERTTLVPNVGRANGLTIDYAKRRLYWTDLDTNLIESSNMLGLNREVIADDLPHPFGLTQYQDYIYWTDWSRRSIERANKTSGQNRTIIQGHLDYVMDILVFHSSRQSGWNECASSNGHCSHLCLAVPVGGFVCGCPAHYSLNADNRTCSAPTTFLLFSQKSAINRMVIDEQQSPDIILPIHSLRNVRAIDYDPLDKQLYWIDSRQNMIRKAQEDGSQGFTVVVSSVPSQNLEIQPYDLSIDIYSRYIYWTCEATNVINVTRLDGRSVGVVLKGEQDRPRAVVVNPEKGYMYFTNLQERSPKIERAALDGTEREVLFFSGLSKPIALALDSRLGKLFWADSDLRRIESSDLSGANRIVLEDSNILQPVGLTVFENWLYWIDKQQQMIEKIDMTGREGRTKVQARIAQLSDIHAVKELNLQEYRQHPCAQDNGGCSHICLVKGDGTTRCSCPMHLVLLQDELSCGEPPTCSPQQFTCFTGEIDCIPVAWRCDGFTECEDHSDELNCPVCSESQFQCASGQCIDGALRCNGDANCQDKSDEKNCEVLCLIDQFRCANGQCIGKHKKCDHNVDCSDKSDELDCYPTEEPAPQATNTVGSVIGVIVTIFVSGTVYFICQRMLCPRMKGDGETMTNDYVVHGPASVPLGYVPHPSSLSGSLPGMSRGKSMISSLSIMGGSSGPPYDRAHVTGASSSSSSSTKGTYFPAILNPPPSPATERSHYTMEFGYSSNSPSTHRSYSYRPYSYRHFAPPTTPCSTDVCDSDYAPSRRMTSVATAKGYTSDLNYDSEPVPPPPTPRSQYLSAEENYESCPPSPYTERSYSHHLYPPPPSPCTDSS
Procedure: To examine the expression of the LDLR family members, cells cultured in six-well plates were lysed with 0.5 ml lysis buffer (phosphate-buffered saline containing 1% Triton X-100 and 1 mM PMSF) at 4° C. for 30 minutes. Equal quantities of protein were subjected to SDS-PAGE under non-reducing conditions. Following transfer to Immobilon-P membrane, successive incubations with primary antibody and horseradish peroxidase-conjugated secondary antibody were carried out for 60 minutes at room temperature. The immunoreactive proteins were then detected using the ECL system.
To examine the role of this C-terminal region of Mesd on receptor folding, a Mesd mutant (Mesd_C), which lacks the C-terminal region (amino acids 156-191) but retains the endoplasmic reticulum retention signal (REDL) was generated (FIG. 3A). Next, a potential role for MesdΔC on LRP6 folding was evaluated. HEK293 cells were transiently transfected with cDNA for the LRP6 with cotransfection of control vector, or cDNAs for Mesd or MesdΔC. The steady-state levels of LRP6 were analyzed by western blotting with the anti-MYC antibody (FIG. 5A). […] In FIG. 5A, HEK293 cells were transiently transfected with the indicated cDNAs. Cell lysates were analyzed by SDS-PAGE under reducing conditions and western blotted with anti-FLAG or anti-HA antibodies as indicated.

Sequence of LRP5 (O75197 32-1615): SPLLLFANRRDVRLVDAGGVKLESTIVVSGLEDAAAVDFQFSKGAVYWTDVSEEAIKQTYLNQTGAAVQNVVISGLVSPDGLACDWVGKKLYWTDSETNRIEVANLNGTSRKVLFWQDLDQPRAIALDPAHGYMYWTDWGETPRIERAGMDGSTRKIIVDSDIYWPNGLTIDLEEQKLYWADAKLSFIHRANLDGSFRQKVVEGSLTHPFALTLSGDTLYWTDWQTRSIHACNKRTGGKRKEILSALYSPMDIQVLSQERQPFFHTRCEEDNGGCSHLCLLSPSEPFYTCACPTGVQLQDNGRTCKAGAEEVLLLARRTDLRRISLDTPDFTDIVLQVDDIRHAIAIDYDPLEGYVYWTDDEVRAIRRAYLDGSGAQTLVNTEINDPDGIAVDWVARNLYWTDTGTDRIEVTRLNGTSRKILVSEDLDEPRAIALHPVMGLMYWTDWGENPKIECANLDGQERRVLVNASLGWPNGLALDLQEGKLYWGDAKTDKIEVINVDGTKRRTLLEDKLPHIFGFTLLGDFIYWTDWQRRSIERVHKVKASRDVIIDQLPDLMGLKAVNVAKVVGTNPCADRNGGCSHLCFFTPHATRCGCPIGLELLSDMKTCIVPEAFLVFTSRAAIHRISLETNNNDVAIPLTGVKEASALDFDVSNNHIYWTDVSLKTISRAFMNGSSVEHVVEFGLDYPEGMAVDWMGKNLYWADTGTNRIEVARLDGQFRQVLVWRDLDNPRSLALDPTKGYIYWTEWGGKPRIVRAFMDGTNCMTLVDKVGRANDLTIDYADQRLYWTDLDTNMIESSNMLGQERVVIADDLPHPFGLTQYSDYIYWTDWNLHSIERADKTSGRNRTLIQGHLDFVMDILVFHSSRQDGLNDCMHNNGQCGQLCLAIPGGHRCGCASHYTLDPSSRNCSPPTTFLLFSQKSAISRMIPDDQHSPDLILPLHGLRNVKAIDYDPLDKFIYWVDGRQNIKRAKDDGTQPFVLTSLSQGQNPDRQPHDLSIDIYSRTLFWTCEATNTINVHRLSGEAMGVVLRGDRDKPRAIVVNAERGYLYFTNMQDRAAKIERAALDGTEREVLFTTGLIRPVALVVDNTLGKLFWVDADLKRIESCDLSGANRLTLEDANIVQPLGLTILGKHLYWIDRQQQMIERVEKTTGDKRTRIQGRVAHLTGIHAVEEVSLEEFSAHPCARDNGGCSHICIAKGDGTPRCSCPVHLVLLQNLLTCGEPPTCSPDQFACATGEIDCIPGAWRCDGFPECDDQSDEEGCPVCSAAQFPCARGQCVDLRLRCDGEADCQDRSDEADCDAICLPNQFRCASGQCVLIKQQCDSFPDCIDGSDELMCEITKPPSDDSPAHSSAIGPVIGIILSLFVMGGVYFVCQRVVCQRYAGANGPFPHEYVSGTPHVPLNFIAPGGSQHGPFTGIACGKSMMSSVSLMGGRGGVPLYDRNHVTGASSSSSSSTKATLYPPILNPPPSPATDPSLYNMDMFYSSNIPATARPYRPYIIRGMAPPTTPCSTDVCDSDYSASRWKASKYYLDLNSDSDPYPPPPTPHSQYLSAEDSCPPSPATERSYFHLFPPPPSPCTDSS

Amount of the mature form of LRP6 on coexpression (LRP6): significantly increased
B1: Mesd: recombinant wild-type mouse Mesd, polyhistidine tail at the N-terminus, lacks the signal peptide, expressed in E. coli (protein)
chain: ADTPGEATPPPRKKKDIRDYNDADMARLLEQWEKDDDIEEGDLPEHKRPSAPIDFSKLDPGKPESILKMTKKGKTLMMFVTVSGNPTEKETEEITSLWQGSLFNANYDVQRFIVGSDRAIFMLRDGSYAWEIKDFLVSQDRCAEVTLEGQMYPGKGGGSKEKNKTKPEKAKKKEGDRKPRASKEDNRAGSRREDL
modifications: left off: small tags and cut ends
notes: recombinant wild-type mouse Mesd, polyhistidine tail at the N-terminus, lacks the signal peptide, expressed in E. coli
Specific ^125I-Mesd binding to LRP5 (LRP5): specifically binds to Mesd, albeit at lower levels compared to LRP6
